In patent publication US20210122827A1 (GMAX BIOPHARM, published 2021):

B1: mouse ascites antibody L4H4 (antibody, V domains shown)
VH: DVQLQESGPGLVKPSQSLSLTCTVTGYSITSDYAWTWIRQFPGNKLEWMGYISFTGTTSYTPSLKSRISITRDTSKNQFFLYLNSVTAEDTATYYCVRSVIFTIDSWGQGTSVTVSS
VL: DIQMTQSPASLSASVGETVTITCRASGNIHNYLTWFQQRRGKSPQLLVYNAKALADGVPSRFSGSGSGTEYSLKINSLQPEDFGDYYCLHFWSSPLTFGAGTKLELKR
notes: Murine antibody produced from mouse ascites; also called GCGR antibody L4H4
B2: hGCGR antibody L7H7 (antibody, V domains shown)
VH: QVQLVQSGAEVKKPGASVKVSCKASGYTFTEYTMHWVRQAPGQRLEWIGGINPDNGGPSYSQKFKGRVTITRDTSASTAYMELSSLRSEDTAVYYCAEETHDYDKFAYWGQGTLVTVSS
VL: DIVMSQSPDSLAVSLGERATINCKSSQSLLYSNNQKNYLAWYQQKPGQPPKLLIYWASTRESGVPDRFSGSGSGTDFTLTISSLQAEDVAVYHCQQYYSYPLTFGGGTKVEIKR

How the values were obtained:
human glucagon receptor [1] = target: T1, human glucagon receptor (human, UniProt P47871 26-477); assay: FACS on CHO-DHFR-hGCGR cells, antibody at 500, 50 and 5 nM; control is blank CHO-DHFR- cells
T1 construct: also called hGCGR; human GCGR
Protocol: PBS containing 10 mM EDTA was used to detach the CHO-DHFR-hGCGR cells and 10⁵ cells/tube was dispensed into 1.5 mL EP tubes, and the supernatant was removed after centrifugation, The negative control sample was resuspended with a loading buffer (PBS, 2% FBS). For the positive control, 200 μL hGCGR antibody solution of specific concentrations was added to the cells and incubated at room temperature; after incubation, the cells were then centrifuged at 1500 rpm to remove the supernatant, washed with a FACS loading buffer and centrifuged again. The cells were resuspended with addition (200 μL/well) of a FITC labeled goat anti-mouse fluorescent antibody at 1:50 dilution (BD Pharmingen) and incubated at room temperature for 30 min in the dark. The supernatant was removed after centrifugation, and cells were washed with FACS loading buffer, centrifuged again, and resuspended with the loading buffer for FACS analysis.

human glucagon receptor [2] = target: T1, human glucagon receptor; assay: cell-based or functional assay

| Binder | binding result (human glucagon receptor [1]) | IC50, antagonism of glucagon-activated hGCGR signaling, direct cAMP assay on CHO-DHFR- cells expressing human GCGR (human glucagon receptor [2]) [nM] |
| --- | --- | --- |
| B1 | binds | – |
| B2 | – | 139 |
